Residue numbers refer to the chain shown, from its start.
T1: human SEZ6L ECD-His (human, UniProt Q9BYH1 29-955)
T1 construct: whole entry named
T1 sequence: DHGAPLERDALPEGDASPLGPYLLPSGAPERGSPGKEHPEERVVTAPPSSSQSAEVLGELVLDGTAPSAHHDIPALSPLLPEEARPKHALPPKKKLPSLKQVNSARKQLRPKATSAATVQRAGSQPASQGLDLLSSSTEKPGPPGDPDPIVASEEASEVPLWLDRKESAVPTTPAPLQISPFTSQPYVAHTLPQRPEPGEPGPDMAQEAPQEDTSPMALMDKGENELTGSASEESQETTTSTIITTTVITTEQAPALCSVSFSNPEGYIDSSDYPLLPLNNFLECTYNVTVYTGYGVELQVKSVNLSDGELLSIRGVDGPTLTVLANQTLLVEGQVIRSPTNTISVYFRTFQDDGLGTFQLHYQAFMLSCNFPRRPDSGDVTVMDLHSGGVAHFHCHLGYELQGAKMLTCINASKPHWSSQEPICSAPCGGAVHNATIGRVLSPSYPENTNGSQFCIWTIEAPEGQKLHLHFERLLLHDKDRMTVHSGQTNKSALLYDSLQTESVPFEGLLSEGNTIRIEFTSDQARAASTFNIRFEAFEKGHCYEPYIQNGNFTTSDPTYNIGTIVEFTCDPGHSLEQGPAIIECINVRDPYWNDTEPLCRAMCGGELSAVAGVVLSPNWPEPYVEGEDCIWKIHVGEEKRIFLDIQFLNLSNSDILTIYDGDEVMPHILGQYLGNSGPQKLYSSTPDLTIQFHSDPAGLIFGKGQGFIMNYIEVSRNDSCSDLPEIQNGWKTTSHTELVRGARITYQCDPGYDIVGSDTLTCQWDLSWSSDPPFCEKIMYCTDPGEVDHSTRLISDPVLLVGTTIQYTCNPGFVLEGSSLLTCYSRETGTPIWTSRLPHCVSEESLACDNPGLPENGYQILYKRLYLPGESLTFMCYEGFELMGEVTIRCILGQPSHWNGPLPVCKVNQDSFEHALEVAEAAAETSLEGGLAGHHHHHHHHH

T2: SEZ6 N1 (amino acids 1-70) on yeast (human, UniProt Q53EL9 20-89)
T2 construct: yeast display
T2 sequence: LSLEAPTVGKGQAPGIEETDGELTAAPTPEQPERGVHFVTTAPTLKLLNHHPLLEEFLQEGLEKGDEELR

T3: rat SEZ6 on RIN-m5F cells (rat, UniProt Q7TSK2 20-991 (mouse entry))
T3 construct: endogenous on RIN-m5F cells; also called rSEZ6
T3 chain: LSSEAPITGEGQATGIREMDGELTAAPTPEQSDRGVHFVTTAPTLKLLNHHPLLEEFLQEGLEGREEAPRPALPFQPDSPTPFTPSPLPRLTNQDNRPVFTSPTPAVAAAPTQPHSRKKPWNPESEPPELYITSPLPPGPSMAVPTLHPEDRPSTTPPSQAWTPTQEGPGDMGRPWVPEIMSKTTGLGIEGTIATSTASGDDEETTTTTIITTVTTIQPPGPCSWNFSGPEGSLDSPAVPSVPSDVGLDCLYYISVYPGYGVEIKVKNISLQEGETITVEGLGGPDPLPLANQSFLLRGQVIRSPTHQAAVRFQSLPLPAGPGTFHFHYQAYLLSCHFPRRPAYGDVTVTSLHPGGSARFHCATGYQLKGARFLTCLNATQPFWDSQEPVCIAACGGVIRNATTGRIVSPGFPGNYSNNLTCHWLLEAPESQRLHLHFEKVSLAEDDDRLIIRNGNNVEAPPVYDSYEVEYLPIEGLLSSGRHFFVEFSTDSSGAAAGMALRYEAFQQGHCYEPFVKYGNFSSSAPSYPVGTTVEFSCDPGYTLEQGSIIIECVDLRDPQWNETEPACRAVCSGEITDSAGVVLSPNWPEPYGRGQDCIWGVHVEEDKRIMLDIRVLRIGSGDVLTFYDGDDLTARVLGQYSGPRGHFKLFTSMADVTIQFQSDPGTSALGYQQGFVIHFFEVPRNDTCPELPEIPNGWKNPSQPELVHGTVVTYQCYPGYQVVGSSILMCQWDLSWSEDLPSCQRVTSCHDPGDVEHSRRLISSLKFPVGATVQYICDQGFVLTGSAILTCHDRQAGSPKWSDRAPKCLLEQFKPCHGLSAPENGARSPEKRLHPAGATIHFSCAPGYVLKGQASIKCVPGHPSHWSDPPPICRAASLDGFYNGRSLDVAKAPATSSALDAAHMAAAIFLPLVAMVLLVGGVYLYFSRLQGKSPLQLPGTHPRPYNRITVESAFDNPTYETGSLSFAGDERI

B1: SC17.45 (antibody, V domains shown)
VH: QVQLQQPGSVLVRPGDSVKLSCKASGYTFTSYWMHWVKQSPGQGLEWIGEIHPHSGSTNYNEKFKGKATLTVDTSSSTAYVDLSSLTSEDSAVYYCVGGHYDYWGQGTTLTVSS
VL: ENVLTQSPAIMSASPGEKVTMTCSASSSVNYMYWYQQKSSTSPKLWIYDTSKLTSGVPGRFSGSGSGNSYSLTISNMEAEDVATYYCFQGSGYPLTFGSGTKLEIK
notes: murine mAb
B2: SC17.49 (antibody, V domains shown)
VH: QVQLQQSGAELVRPGASVTLSCKASGYTFTDYEMHWVKQTPVHGLEWIGGIDPETGGTAYNQKFKGKATLTADKSSSTAYMELRSLTSEDSAVYFCTRWFSYWGPGTLVTVSA
VL: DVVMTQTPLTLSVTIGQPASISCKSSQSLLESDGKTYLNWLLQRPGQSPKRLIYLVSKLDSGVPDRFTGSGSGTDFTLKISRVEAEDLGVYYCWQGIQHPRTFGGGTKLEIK
notes: murine mAb
B3: SC17.4 (antibody, V domains shown)
VH: QIQLVQSGPELKKPGETVKISCKASGYTFTDYSMHWVKQAPGKGLKWLGWINTETGEPTYSEDFKGRFAFSLETSASTAYLQINNLKNEDTATYFCVKNKGWFAYWGQGTLVTVSA
VL: DIKMTQSPSSMYASLGERVTITCKASQDINSYLTWFQQKPGKSPKTLIYRANRLIDGVPSRFSGSGSGQDYSLTISSLDYEDMGIYYCLQYDDFPWTFGGGTKLEIK
notes: murine mAb
B4: SC17.187 (antibody, V domains shown)
VH: EVHLQQSGPELVNPGSSVKISCKAAGYTFTDYNMDWVKQSHGKRLEWIGNIYPNNGGAGYNQNFKDKATLTVDKSSSTAYMELRSLTSEDSAVYYCARSITAAWFAYWGQGTLVTVSA
VL: B3 VL with I21L, T34S, K45E, D79E, D93E, W96P
notes: murine mAb
B5: SC17.82 (antibody, V domains shown)
VH: EVQLQQSGPELVKPGASVKMSCKASGYTFTDSYMNWVKQSHGKSLEWIGRVNPNNGGASYNHKFKGKATLTVDKSLSTAYMRLNSLTSEDSAVYYCSRSGDLYYYAMDYWGQGTSVTVSS
VL: QIVLTQSPAIMSASLGEEITLTCSASSSVSYMHWYQQKSGTSPKLLIYSTSNLASGVPSRFSGSGSGTFYSLTISSVEAEDAADYYCHQWSSFTFGSGTKLEIK
notes: murine mAb
B6: SC17.87 (antibody, V domains shown)
VH: EVQLQQSGAELLKPGASVKLSCTASGLNIKDYYIHWVYQRPEQGLEWIGRIDPESDNTLYDPKFQGKASITADTSSNTAYLQLSSLTSEDTAVYYCTTNTPFAYWGQGTLVTVST
VL: DVVMTQTPLSLPVSLGDQASISCRSSQSLVHSNGNTYLHWYLQKPGQSPKLLISKVSNRFSGVPDRFSGSGSGTDFTLKISRVEAEDLGVYFCSQSTHVPPMFGGGTRLEIK
notes: murine mAb
B7: SC17.97 (antibody, V domains shown)
VH: QVQLPQSGAELAKPGASVKISCKASGFTFTSYWMHWVKQRPGQGLEWIGYINPSTDYTEYNQKFKDKATLTADKSSSTAYMQLGSLTSEDSAVYYCARSSYGSSPFDYWGQGSTLTVSS
VL: B6 VL with S32N, K50N, S54Y, R82I, V90L, P101R, M102T, R108K
notes: murine mAb
B8: SC17.200 (antibody, V domains shown)
VH: QVQLQQSGPELVKPGASVKISCKASGYAFSSSWINWVKQRPGQGLEWIGRIYPGEGDTNYSGNFEGKATLTADKSSTTAYMQLSSLTSVDSAVYFCTRGLVMDYWGQGTALTVSS
VL: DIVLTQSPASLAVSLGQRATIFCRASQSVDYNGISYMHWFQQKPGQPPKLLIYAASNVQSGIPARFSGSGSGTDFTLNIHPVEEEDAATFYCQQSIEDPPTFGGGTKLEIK
notes: murine mAb
B9: SC17.191 (antibody, V domains shown)
VH: EVQLQQSGPELMKPGASVKMSCKASGYTFTDYNMHWVKQNQGKSLEWIGEINPNTGGTGYNQKFKDKATLTVDKSSSTAYMELRSLTSEDSAVYYCARIPSLRRYYFDYWGQGTTLTVSS
VL: QIVLTQSPAIMSASPGEKVTMTCSASSSVSYMHWYQQKSGTSPKRWIYDTSKLASGVPARFTGSGSGTSYSLTISSMEAEDAATYYCQQWSSSPPTFGAGTKLELK
notes: murine mAb
B10: SC17.193 (antibody, V domains shown)
VH: QVTLKESGPGILQPSQTLSLTCSFSGFSLITYGIGVGWIRQPSGKGLEWLAHIWWNDNKYYNTALKSRLTISKDTSNNQVFLKIANVDTADTATYYCARMVYYDYDGGFAYWGQGTLVTVSA
VL: DLVLTQSPASLAVSLGQRATISCRASESVSTSGYSYMHWYQQKPGQPPKLLIYLASNLESGVPARFSGSGSGTDFTLNIHPVEEEDATTYYCQHSRELPYTFGGGTKLEIK
notes: murine mAb
B11: SC17.93 (antibody, V domains shown)
VH: QVQLQQPGAELVKPGASVMLSCKASGYTFTSYWVHWVKQRPGQGLEWIGVINPRNGRNNYNEKFKTKATLTVDKSSSTAYMQLSSPTSEDSAVYYCAREDYDGGDYAMDYWGQGTSVTVSS
VL: DIVMSQSPSSLAVSVGEKVTMTCKSSQSLLYSSNQKNYLAWYQQKPGQSPKLLIYWASTRESGVPDRFIGSGSGTDFTLTISSVKAEDLAIYYCQQYYRYPLTFGAGTKLELK
notes: murine mAb
B12: SC17.102 (antibody, V domains shown)
VH: EVQLQQSGPELMKPGASVKMSCKASGDTFTDYNIHWVKQNQGKSLEWIGEVNPNIGGIGYNQKFKGKATLTVDKSSSTAYMELRSLTSEDSAVYYCAMGRWYFDVWGAGTTVTVSS
VL: B9 VL with A59P, T62S, S64R, Q89H, S93N, L105M
notes: murine mAb

molecular target: T1, human SEZ6L ECD-His; experiment: ELISA on plates coated with SEZ6L protein

**Q.** Does B1 bind?
**A.** no binding (tested: 1 µg/mL)

**Q.** Does B2 bind?
**A.** no binding (tested: 1 µg/mL)

**Q.** Does B3 bind?
**A.** no binding (tested: 1 µg/mL)

molecular target: T4, SEZ6 Sushi Domain 1 (amino acids 336-395) on yeast (human, UniProt Q53EL9 355-414); experiment: yeast display, flow cytometry;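 note: antibody binding to individual SEZ6 domains displayed on yeast, measured by flow cytometry, antibody at 50 nM purified or hybridoma supernatant diluted 1:2, 90 min on ice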
T4 construct: yeast display

**Q.** Does B4 bind?
**A.** binds

**Q.** Does B5 bind?
**A.** binds

**Q.** Does B6 bind?
**A.** binds

**Q.** Does B7 bind?
**A.** binds

**Q.** Does B8 bind?
**A.** binds

molecular target: T2, SEZ6 N1 (amino acids 1-70) on yeast; experiment: yeast display, flow cytometry;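 note: antibody binding to individual SEZ6 domains displayed on yeast, measured by flow cytometry, antibody at 50 nM purified or hybridoma supernatant diluted 1:2, 90 min on ice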

**Q.** Does B3 bind?
**A.** binds

molecular target: T5, SEZ6 Sushi Domain 4 (amino acids 750-813) on yeast (human, UniProt Q53EL9 769-832); experiment: yeast display, flow cytometry;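 note: antibody binding to individual SEZ6 domains displayed on yeast, measured by flow cytometry, antibody at 50 nM purified or hybridoma supernatant diluted 1:2, 90 min on ice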
T5 construct: yeast display

**Q.** Does B9 bind?
**A.** binds

**Q.** Does B10 bind?
**A.** binds

**Q.** Does B11 bind?
**A.** binds

**Q.** Does B12 bind?
**A.** binds

molecular target: T6, mouse SEZ6 on Neuro2a cells (mouse, UniProt Q7TSK2 20-991); experiment: flow cytometry on Neuro2a cells expressing mouse SEZ6
T6 construct: endogenous on Neuro2a cells; also called murine SEZ6; mSEZ6

**Q.** Does B1 bind?
**A.** no binding (tested: 5 µg/mL)

**Q.** Does B2 bind?
**A.** no binding (tested: 5 µg/mL)

**Q.** Does B3 bind?
**A.** no binding (tested: 5 µg/mL)

molecular target: T7, human SEZ6L2 ECD-His (human, UniProt Q6UXD5 28-843); experiment: ELISA on plates coated with SEZ6L2 protein
T7 construct: whole entry named
T7 sequence (Q6UXD5 other isoform, or with tags, fused parts or gaps): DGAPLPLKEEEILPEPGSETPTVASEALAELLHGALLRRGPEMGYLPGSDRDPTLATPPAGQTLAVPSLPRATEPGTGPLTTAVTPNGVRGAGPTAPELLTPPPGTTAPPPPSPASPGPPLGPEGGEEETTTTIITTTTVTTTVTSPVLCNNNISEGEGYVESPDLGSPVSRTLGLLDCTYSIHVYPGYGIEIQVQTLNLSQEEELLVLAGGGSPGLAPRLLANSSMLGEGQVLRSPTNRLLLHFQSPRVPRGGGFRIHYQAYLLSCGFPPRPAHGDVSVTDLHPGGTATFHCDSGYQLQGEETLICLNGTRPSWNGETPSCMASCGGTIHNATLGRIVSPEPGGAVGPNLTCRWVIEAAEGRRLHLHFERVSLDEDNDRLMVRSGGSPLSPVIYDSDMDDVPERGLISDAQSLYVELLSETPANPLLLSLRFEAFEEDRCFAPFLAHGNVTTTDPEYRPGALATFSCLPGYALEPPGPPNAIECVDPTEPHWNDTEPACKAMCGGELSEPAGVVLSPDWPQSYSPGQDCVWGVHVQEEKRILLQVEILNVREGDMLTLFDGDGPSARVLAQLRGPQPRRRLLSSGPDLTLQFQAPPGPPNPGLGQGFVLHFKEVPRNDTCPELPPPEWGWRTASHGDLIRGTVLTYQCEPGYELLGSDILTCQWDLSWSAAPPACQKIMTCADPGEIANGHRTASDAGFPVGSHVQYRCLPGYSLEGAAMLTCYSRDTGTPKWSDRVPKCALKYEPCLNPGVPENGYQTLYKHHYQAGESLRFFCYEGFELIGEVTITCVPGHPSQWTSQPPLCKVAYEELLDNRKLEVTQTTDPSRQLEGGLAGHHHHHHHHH

**Q.** Does B1 bind?
**A.** no binding (tested: 1 µg/mL)

**Q.** Does B2 bind?
**A.** no binding (tested: 1 µg/mL)

**Q.** Does B3 bind?
**A.** no binding (tested: 1 µg/mL)

molecular target: T8, hSEZ6-ECD-His (human, UniProt Q53EL9 20-925); experiment: bio-layer interferometry (ForteBio RED) or surface plasmon resonance (Biacore 2000) on human SEZ6-His; the table does not say which; column Hu Affinity (Kd, nM)
T8 construct: the whole entry is named; also called recombinant SEZ6-His; human recombinant SEZ6-His

**Q.** For B1, which Kd is on record?
**A.** 17.4 nM

**Q.** For B2, which Kd is on record?
**A.** 23.1 nM

Molecular target: T3, rat SEZ6 on RIN-m5F cells
Experiment: flow cytometry on RIN-m5F cells expressing rat SEZ6, verified by BLI or SPR on rat SEZ6-His

**Q.** Does B1 bind?
**A.** no binding (tested: 5 µg/mL)

**Q.** Does B2 bind?
**A.** no binding (tested: 5 µg/mL)

**Q.** Does B3 bind?
**A.** no binding (tested: 5 µg/mL)

— US20190022241A1 (AbbVie / Abbott, published 2019)
